The supplement of paper PMC9170038

System: MS2 coat protein
Test: apparent KD of MS2 coat protein; designed switch direction (-1 OFF switch, 1 ON switch): -1; higher = weaker reporter binding
In short: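 An oligonucleotide input, 200 uM small-molecule ligand, or no input was present during titration of SNAP-549-labelled MS2 coat protein, which was doubled from 0.7 or 1.5 nM to 3 µM. Designed RNA switches had been transcribed on Illumina chips by stalled E. coli RNA polymerase. Apparent KD per design is the median over clusters of curves fitted to normalised cluster fluorescence.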

[1] = Eterna round: R95, input ligand: microRNA oligo, concentration not stated
[2] = input ligand: microRNA oligo, concentration not stated
[3] = Eterna round: R95, input ligand: FMN 200 uM
[4] = Eterna round: R95, input ligand: none

| Sequence | apparent KD of MS2 coat protein (input ligand: FMN 200 uM) [nM] | apparent KD of MS2 coat protein (input ligand: none) [nM] | apparent KD of MS2 coat protein [1] [nM] | apparent KD of MS2 coat protein [2] [nM] | apparent KD of MS2 coat protein [3] [nM] | apparent KD of MS2 coat protein [4] [nM] |
| --- | --- | --- | --- | --- | --- | --- |
| AGUCGAAAGACCAACAUGGACAUGAGGAUCACCCAUGUACAAGCCUUUUGCUCGUCACUAUCGUCAAAAGACGAUAG [Omei Mir Offv1 A1] (Eterna round: R97, puzzle: Sensor, turn-off variant 1) | 34.5 | 32.8 |  |  |  |  |
| AGUCGGCGAGGAUAUACAUGAGGAUCACCCAUGUGAUAGAGUGCACGCGUACGUGUACGUAGAAGGCGCUGACA [Mat - Exclusion 3 - Mod of JL D95] (puzzle: Exclusion 3) |  |  | 12.6 |  |  |  |
| AGUCGGUCAGGAUAUGCAAACGUAGACAUGAGGAUCACCCAUGUAACGUGGGCCUGGUUUGUAGAAGGGACGAGCA [EX5 #85] (Eterna round: R97, puzzle: Exclusion 5) | 38.2 | 28.2 |  |  |  |  |
| AGUCGGUCAGGAUAUGCAAUUGUGGACAUGAGGAUCACCCAUGUAACGUGGGCUUGGUUUGUAGAAGGGACGUGCA [EX5 #90] (Eterna round: R97, puzzle: Exclusion 5) | 378 | 626 |  |  |  |  |
| AGUCGGUCAGGAUAUGCAGACGUAGACAUGAGGAUCACCCAUGUAACGUGGGCCUGGUUUGUAGAAGGGACGAGCA [EX5 #84] (Eterna round: R97, puzzle: Exclusion 5) | 47.9 | 42.4 |  |  |  |  |
| AGUGCUGGCGCGUCGGUGUUGGUGCAAUAAGCUUGUGAAACAUGAGGAUCACCCAUGUCCUCAUAAGCUCGUCUUAU [salish99_TOv2_r2_085] (Eterna round: R96, puzzle: Sensor v3, turn-off variant 2) | 14.9 | 17.9 |  | 375 |  |  |
| AGUGCUGGCGCGUCGGUGUUGGUGCAAUAAGCUUGUGAAACAUGAGGAUCACCCAUGUCCUCAUAAGCUCGUCUUAU [salish99_TOv2_r2_085] (puzzle: Sensor v3, turn-off variant 2) |  |  | 732 |  | 17.1 | 15.8 |
| AGUGGCCGAGGAUAUACAUGAGGAUCACCCAUGUUUUAUGUUGAAACGUUAGCGGCCUGUAGAAGGCGGACCUU [Eternabot (L2) Solution 76] (Eterna round: R97, puzzle: Exclusion 3) | 17.5 | 19.3 |  |  |  |  |
| AGUGUGUGGCAGGAUAUGCAAUUUAUAGGUGAAGCAGAAGGGUCUACAUGAGGAUCACCCAUGUGUGCGGUUGA [Ex6 #20] (Eterna round: R97, puzzle: Exclusion 6) | 600 | 188 |  |  |  |  |
| AGUGUGUGGCAGGAUAUGCGAUUUGUAAGUAUUGCAGAAGGGUCUACAUGAGGAUCACCCAUGUGUGCGGUUGA [Ex6 #25] (Eterna round: R97, puzzle: Exclusion 6) | 947 | 469 |  |  |  |  |
| AGUGUGUGGCAGGAUAUGCUAUUGAUUGGUGAAGCAGAAGGGUCUACAUGAGGAUCACCCAUGUAAGCGGUUGA [Ex6 #28] (Eterna round: R97, puzzle: Exclusion 6) | 327 | 46.4 |  |  |  |  |
| AGUGUGUGGCAGGAUAUUCUAAUGAUUAGGAGGGAAGAAGGGUCUACAUGAGGAUCACCCAUGUAAGCGGUUGA [Ex6 #39] (Eterna round: R97, puzzle: Exclusion 6) | 135 | 38.3 |  |  |  |  |
| AGUUAAGCAGGAUAUAUCCGGGAUAACAUGAGGAUCACCCAUGUGACCGCUUGAUAUCCUAUAGAAGGGCUUAAGA [Mod of ViennaUCT 25 - Jieux - Exclusion 5] (Eterna round: R97, puzzle: Exclusion 5) | 68.2 | 27.4 |  |  |  |  |
| AGUUACUACAAGCUUUGGGACAUGAGGAUCACCCAUGUUCGUCUUAUUGUAGUAGGUACGCUGACGUACCUACUACU [Mat - Sensor v3 - turn-off var 1 - JL Mod - D6] (puzzle: Sensor v3, turn-off variant 1) |  |  | 42.8 |  | 15.9 | 14.5 |
| AGUUCUAACACGUUGGUGUUAGUACCAUAAGCUUGUGAUACAUGAGGAUCACCCAUGUCCUCAUAAGCUCGUCUUAU [salish99_TOv2_r3_1001] (Eterna round: R96, puzzle: Sensor v3, turn-off variant 2) | 25.2 | 27.3 |  | 563 |  |  |
| AGUUCUAACACGUUGGUGUUAGUACCAUAAGCUUGUGAUACAUGAGGAUCACCCAUGUCCUCAUAAGCUCGUCUUAU [salish99_TOv2_r3_1001] (puzzle: Sensor v3, turn-off variant 2) |  |  | 400 |  | 26.8 | 21.9 |
| AGUUGGCGAGGAUAUACAUGAGGAUCACCCAUGUGAAAUUAAAGUGAGUAAAUGAAAAGUAGAAGGCGCUGACA [Mod of Mat 21 - Jieux - Exclusion 3] (Eterna round: R97, puzzle: Exclusion 3) | 259 | 40.3 |  |  |  |  |

| Sequence | apparent KD of MS2 coat protein (input ligand: FMN 200 uM) [nM] | apparent KD of MS2 coat protein (input ligand: none) [nM] | apparent KD of MS2 coat protein [1] [nM] | apparent KD of MS2 coat protein [2] [nM] | apparent KD of MS2 coat protein [3] [nM] | apparent KD of MS2 coat protein [4] [nM] |
| --- | --- | --- | --- | --- | --- | --- |
| AGUUGGCGAGGAUAUACAUGAGGAUCACCCAUGUGAAUAAGAAUAGUGAGGAAGAAAAGUAGAAGGCGCUGACA [Mat - Exclusion 3 - Mod of Salish D36] (puzzle: Exclusion 3) |  |  | 39.8 |  | 237 | 44.5 |
| AGUUGGCGAGGAUAUACAUGAGGAUCACCCAUGUGAGAGAAAAAAGUGAGGAAGAAAAGUAGAAGGCGCUGACA [salish99_ex3_r3_038] (puzzle: Exclusion 3) |  |  | 48.3 |  | 318 | 77.3 |
| AGUUGGCGAGGAUAUACAUGAGGAUCACCCAUGUGAGAGAAUAAAGUGAGGAAGAAAAGUAGAAGGCGCUGACA [Mat - Exclusion 3 - Mod of Salish D9] (puzzle: Exclusion 3) |  |  | 47.7 |  |  |  |
| AUAAAAGAAGUUAGGAUAUGGAAUCGUGGCAACGACCAGAAGGAACUUGAGGAUCACCCAAGUGAUUCUGAUCG [Atzaace] (Eterna round: R97, puzzle: Brourd's mod of Exclusion 4) | 15.2 | 14.1 |  |  |  |  |
| AUAAAUAAUGCAGGAUAUGUCGGCGAAAGGCCGGCAGAAGGGCAGCGUGGAUGUAUCCUGAACAUGAGGAUCACCCAUGUGAAA [Ederisbi] (Eterna round: R96, puzzle: Exclusion NG 1) | 209 | 347 |  | 168 |  |  |
| AUAAAUCAUGUAGGAUAUGCGUAGCGAAGCUAUGCAGAAGGACAUGAGGAUCACCCAUGUCUUUCCGUCUGCGUACAGACGGAA [Mat - Exclusion NG 1 - Mod of JL - D42] (Eterna round: R96, puzzle: Exclusion NG 1) | 149 | 24.1 |  | 20.1 |  |  |
| AUAAAUCAUGUAGGAUAUGCGUGGAGAAGCUAUGCAGAAGGACAUGAGGAUCACCCAUGUGCUUCCGUCUGCGUACAGACGGAA [Mat - Exclusion NG 1 - Mod of JL - D36] (Eterna round: R96, puzzle: Exclusion NG 1) | 38 | 131 |  | 89.2 |  |  |
| AUAAAUCAUGUAGGAUAUGCGUGGCAAAGCUAUGCAGAAGGACAUGAGGAUCACCCAUGUGCUUCCGUCUGGGAACAGACGGUA [Mat - Exclusion NG 1 - Mod of JL - D34] (Eterna round: R96, puzzle: Exclusion NG 1) | 243 | 84.9 |  | 67.7 |  |  |
| AUAAGUAUAUAGGAUAUCUAGCUGGAAACAGCUAGAGAAGGAUGUACAUGAGGAUCACCCAUGUAAAUCUCAAU [Ex6/12-A3] (Eterna round: R97, puzzle: Exclusion 6) | 16.3 | 14.1 |  |  |  |  |
| AUAAGUAUAUAGGAUAUCUAGCUGGAUACAGCUAGAGAAGGAUGUACAUGAGGAUCACCCAUGUAAAUCUCAAU [Ex6/12-A1] (Eterna round: R97, puzzle: Exclusion 6) | 18.7 | 15.1 |  |  |  |  |
| AUAAGUGAUAAGGAUAUUACUAGCUGCGGCUAGUGAGAAGGUAUCACAUGAGGAUCACCCAUGUGUUCCAAUAA [Ex6/7-B3] (Eterna round: R97, puzzle: Exclusion 6) | 254 | 134 |  |  |  |  |
| AUAAUAUAUGUAGGAUAUCUGCACGAUUAGUGCAGAGAAGGACAUGAGGAUCACCCAUGUAAUUAAGAUCAAUUAUUAAAUUAU [ENG1/4-B1] (Eterna round: R96, puzzle: Exclusion NG 1) | 84.3 | 35.4 |  | 24.6 |  |  |
| AUAAUGUAAGGAUAUCAGUCGACUAGCCUCGGCUAGUCGACUGAGAAGGUACAUGAGGAUCACCCAUGUGAUUA [E4/10-A2] (Eterna round: R97, puzzle: Exclusion 4) | 762 | 191 |  |  |  |  |
| AUAAUGUAAGGAUAUCAGUCGUACAGCCUCGGCUGUACGACUGAGAAGGUACAUGAGGAUCACCCAUGUGAUCA [E4/8-A2] (Eterna round: R97, puzzle: Exclusion 4) | 98.4 | 1200 |  |  |  |  |
| AUAAUGUAAGGAUAUCAGUCGUACAGCUUCGGCUGUACGACUGAGAAGGUACAUGAGGAUCACCCAUGUGGUCA [E4/9-A1] (Eterna round: R97, puzzle: Exclusion 4) | 52.2 | 886 |  |  |  |  |
| AUAAUGUCAGGAUAUACUAAUGAUGAAUGAUUAGACAUUAUGUAGAAGGGACAUGAGGAUCACCCAUGUAAUAU [EX4 #2] (Eterna round: R97, puzzle: Exclusion 4) | 39.9 | 26.8 |  |  |  |  |
